assay: soluble on expression in E. coli; label from the status in PepcDB or PDB records

Sequence	soluble on expression in E. coli
MESADGEIEALCSIWDGVHVESKLEASRRYLKHKIKSLEDESTSASVLIEMTVSEGYPAVSPTVTLSNPRGIGEPEFRELQRQIQEIIEQNSDEMPIICQIFQHCSDFLTENQHQNMDCSICLICLASSPIIVTACDHFMHFACFNRYLTECLTGLRQEIQDAQKHMKEQVETNIFCPVCRAQLTDSNTIHNYRENVQLMIKNCKKNQKTLKNKKRRSSTTTEDVQKTIKRWHEEQRKLSKIYEKQKEKGGIIDIEEEKKRRQFFIETTTNEETDEAESTDIAENID	not soluble
MESEGEAQMFADCDQKTVKQTAAKPMSSKKKQDFQALASDRQLAIVFSSMIQVSEAFDYGIGNPEYFVRISMTEEEADIAKENLESIKLENKSLKKQNSEAVALLQKTRNQDMSRIEIQQLTENRAGFFETADSMIKLINQVTPKNAKKTRQQLDQLKKQYTQYSAESIKIMNSIVKKQKADKASFERHLEALLQKQPGQQVRSELYLEHHHHHH	soluble
MESIGLVEVNSIARGIEAADAMLKAAQVDLLEAKPVCPGKYIVLICGDVAAVQSSVTAGKTMAAHSVLDDFILPNVHPQVLTAISAATPLTLIKALGIIETFSIASLIVAADTAAKTGQVDLVEIRIGMGIGGKSFVTLTGDVASVESSVAAGVMLASERGMLVDKVVIPSPHDHLKRCLC	soluble
MESINYQILKRSEKKLLGLFFDYFQHVIKMHETLNKLLCEADVTKREKLIQAIYEMEDFSNKSEFKLINESIWAISKNSPLTNHLRLTITIIMCSRDLERICDYANNLTKFVKHYQHLDVSIFSKLVNLHKSVLNNLKQTFASLQDKEKPLTIQFENVTKILTEFEQQYRVVLTEYYDKVKDEKLSDRIFLIDLILSVKHIERINDYCYNIIKAFLFVKNPEVFN	soluble
METLTVHAPSPSTNLPSYGNGAFSLSAPHVPGAGPLLVQVVYSFFQSPNMCLQALTQLEDYIKKHGASNPLTLQIISTNIGYFCNADRNLVLHPGISVYDAYHFAKPAPSQYDYRSMNMKQMSGNVTTPIVALAHYLWGNGAERSVNIANIGLKISPMKINQIKDIIKSGVVGTFPVSTKFTHATGDYNVITGAYLGNITLKTEGTLTISANGSWTYNGVVRSYDDKYDFNASTHRGIIGESLTRLGAMFSGKEYQILLPGEIHIKESGKRAAHHHHHH	soluble
METMTELNTKEMKLDALLKDMQSVVIAFSGGVDSSLLLKKAIDILGVNYVKPVVVKSELFRNEEFELALKLGQSLGVEVLETEMSELQDANIVKNTPESWYYSKRLMYSQLENIKNKLGFNYVLDGMIMDDLDDFRPGLKARDDFGVRSVLQEAKLYKSEVRELSHQHDLPVWNKPALCSLASRIPYGEELSFTKVNKVNEAEKFILSLGINHVRVRYHHNIARIEVTEDQLNNLLKLKDSIILHLKELGFDYVTMDLEGYRTGSMNEIIDTKSTSFK	not soluble
METPKLSVEAIEKGTVIDHIPAGRGLTILRQFKLLHYGNAVTVGFNLPSKTQGSKDIIKIKGVCLDDKAADRLALFAPEAVVNTIDNFKVVQKRHLNLPDEIAEVFRCPNTNCAGHGEPVKSRFYVKKHNGQTRLKCHYCEKTYSRDSVAEA	not soluble
METRLLVLKYDILNREAICLNRETHELLHANLVESVQPQIGQFLAVENLKIVQIDGVCFISPECGTIVIEPPAPEDCVILPKEKTDVVMFKSWIGFSSDPSHLTYDRNIGYADWYGPVNCSQFKAKNTKVAFFKYLIAVNDLDYKNTGECLMKAVQLVGVIDNRDAAEVRLKMMEFERKRIADIQRTTKQTRLIETVAYPILPSAHQPSSNHSYTGRSSCDSLRPQPVPAARKLSEQPQTVQNQAPYREQINQQRSVTNSIYGEFSGVGRTDQPLETANSRGSTEYYSGRSSSSSDQVIRNEPQLPNPAPILPESMGMVTYENGIMQIVYLRSVQKAAIHYWSKHQITTSLGSVFNCSFKPIPVQATTHWAPFEITAINNVNNEKNEVKTVGKECFALFKVDLSRPEGKFSKWTTIGGNPIFSCEIVGYVMLAHSVLGPQQNQLSILNVAQNYYNRKVAENICCFCRFVRRQVPRMMVDSHWISEDEEVEVFIWELVEIVGASELYRKRQEQLEIGNLGDTADNVKRHNDDIEMQKKRAQQEHFAQQQRPAGSSNSYQTENAQQHSMSNNMQYYHSQAPPVSSRSSISLGETAEFKNKLERTNDMMESLCDAIKKFLDNRQLKETLRGYNPRRLQALEEKLKECSEHLENN	not soluble
METVPGGRWVAEIYGCDVDILEDPKMVEAALVDAVMRLGAPRDSVQSVVYKFHPQGLSAAVVSPVAAVMIHTWPEDNASATLDLYFYRDGVDPEEVLKGLTRAFGAKEESAFRYWRGTEHAIKRRGFGAEKAE	soluble
MEVLVIAPRICVNVIRTLPIGLPVGVEKRLRAFDPDVIHLASPYAFAARAAFIAQKMAVPCVAVYQTDVAAYQQHYHLTWLKNLEHHHHHH	not soluble
MEVPEIEKQIGINLYSTDTTGLGGQLRQEIEDFIVKEITNREEGEEGKYLIVELTKRDWDTHHLTRTLSRILQVSQKRISVAGTKNKRALTTQKISIFDTDASEIEKIHLKDIELKVLGRSRKSVELGDLWGNDFRITVRNIENSPEETEALLKKTTDEILAQGGVPNFFGIQRFGSVRPVTHLVGKAIVEGNFEKAALLYIAEPFPEEPEETKNARQFVKDTLDFKEGLKTYPLRLGHERAMMNHLIANPEDYSGSFRVLPQNLYRMFVHGYQSYIYNIILCRRIEAGIPLNRAVEGDIVCFRNEVGLPDSSKTEKVTSETVNAMNRLLKLGRAFITAPLPGYNTEFASGIPGEIENGVLKELGVSLEGFNIEKFPEMSSKGTRREVLLEVKPKFEAGEDELNPGKSKAVLEFMLPKGSYATTVLREYMKVNPLQMSLEHHHHHH	soluble
MEVQTETYRAAMNGTLERHFSDMIAVIPTRITIEQLKQRLENIATKVDELKIVYSDETSLIVELHMDETIIPYELHIDEANDPEEYKMYNRQDSTIVDRNFEDAAFGTEIFTRTLFVGDVLDCFFQQIQFLWNLAPDLLFVIDSSAAMKVISRNYIEYHVENELLPDIPDLYVIHSVYEDDKEGEPTQYWFHTHGLLRAGVTEIELIIPNRISSYYGIGDLFQTFANNAVENGQVPMNEPIVIAHSQQGSIHTVAVPWEKGLSYIGHKTSMDQLSSIEDEEVKLQPIDAQNTFLGGMDARDEYHQSPSVLLFKFNTSEEYIESFFKEHEEATGLMFYKTNSETDRMAYNAKNTFGYFSNIFQIEKSNEEFRFLAKFGVSYEEGKSEHMWFEMQHITEDLIQGILINEPYFIEDMSEGNSYHLDFDNLTDWVIYAGDAVIKPNNLYMFIGE	not soluble
MEVYIPSFRYEESDLERGYTVFKIEVLMNGRKHFVEKRYSEFHALHKKLKKCIKTPEIPSKHVRNWVPKVLEQRRQGLETYLQAVILENEELPKLFLDFLNVRHLPSLPKAESCGSFDETESEESSKLSHQPVLLFLRDPYVLPAASDFPNVVIEGVLHGIFYPHLQPR	soluble
MEYFNVGKIVNTQGLQGEMRVLSVTDFVEERFKKGQVLALFDEKNQFVMDIEIASHRKQKNFDIIKFKGMYHINDIEKYKGFTLKVAEDQLSDLKDGEFYYHEIIGLDVYEGEELIGKIKEILQPGANDVWVVERHGKRDLLLPYIPPVVLEVDLSNQRVQVELMEGLDDEDLEHHHHHH	soluble
MFAGCATYAGLNFDQLFGPQLVRERTASVETPQADFFQREVKPIVDNRCVVCHACYDAPCQLKLSSVEGIDRGASKALVYEGTRLTAAAPTRLFEDAETTQEWRDAGFHPVLNERDQSMAANLEAGLIARLLQQKERHPLPDQVQLEGFDFSIDREQTCPTIEEYEQYEKDNPNWGMPFGMPNLTNSEYHTLMTWLENGAIMNMHTPISDQEQAKINQYETLLNHSDLKNQLMSRYIYEHLFLSHLYFSELSEKPRFFTLVRSATPPGQPVKRISTRRPYDDPGVERVYYRIIPEQGTIVDKTHMPFALNKQRISNWKKWFIEADYSVTQLPSYEPEVAANPMTAFIDMPVKSRFKFMLDNAQNTIMAYIKGPVCRGQLALNVINDRFWVFFLDPDKADIPEVNEFYRSQADNLKLPAEQESNTLPVTNWVKYARQQARYLEAKSEFTNNWFKHGENLSTDVIWDGNGTNPNAALTVFRHFDSASVVQGLVGEQPKTVWILDYALLERIHYLLVAGFDVYGNFGHQLMTRMFMDFLRLEGESNFVTLLPADMRHQLQSSWYQDQSPQLSDFLQRNVKPFNQPTSVVYKTDDPKTELLNMMRKRLSPVLLPRYEITDTALSDKTEKELKRIGQVRGEGLQTVPQITMLMVRSKSGKDELFTLLHNNAHTNISSLFDEESNRDFANDDMTIVRGVVGSYPAAFFSLKENQVKEFVDQFSAIQNEADYVKLLDSFAIRRSSEKFWPFSDRIHNWYRTNQPIEFGLLDYNRFENR	not soluble
MFCKRFIALVTMLTLVCSMLLPYSNASAETGSALNIEAGAAILVEANSGKILYQKNADELLSIASMTKMMSEYLVHEAVDKGKFKWDQKIKVSEYAYKVSQDASLSNVALENGGSYTVKELYEAMAIFSANGATIALAEAIAGKEVDFVKMMNDKSKELGLKNYKFVNSTGLTNKDLKGMHPEGTTADEENKMSAKDVATLAQHLIKDYPKVLDTAKIPKKEFRPEKEKFAMSNWNWMLKGLVKEYDGVDGLKTGSTPEAGDCFTGTVERNGMRFISVVIKTSSHTARFDETKKLYDYGFANFEMKQMYKKGSSVKGQETVRVENAKDKDVAVQTKQAISLPVPKGSKEVYKTELKESSKGQEAPIKKGAALGQMVITPKDTNDPGFLTGKSLQVDLVTTSEVEEANWFTRAMRGIGSFFSGIWNSAVDTVKGWF	not soluble
MFCTLAGYRWLNSGSLLRRLSQRAVRRLPTAPLCHLHNGATESAASNGALRIVDEKVAYRRYATVFERTVQYPDGRHVTYDILGQPAVQSASVLVFPFDTQSKTCYVIREYCPGPNRVLYGFPAGMVETKHESLEAAARAELSEEAHLRCAQLIDLTAQAAVWERSFEVPNTASDAENCLRGFFADKYSRNVCKMYLALNPEPDGHPGSMDAEELIEQVGAVRVPQLEAWLWSGQMTMPHMLLAMCALTYLRQRGMLT	not soluble
MFDIGFSELLLVFVIGLIVLGPQRLPVAVKTVAGWIRALRSLATTVQNELTQELKLQEFQDSLKKVEKASLENLTPELKASMDELRQAAESMKRTYSANDPEQASDEAHTIHNPVVKGNETQHEGVTPAAAETQASAPEQKPEPVKANVPESTETASVATIDAEKKSAAPVVESSPSSSDKPLEHHHHHH	not soluble
MFEKVIKLWRDTFPKSEHKLMSIEYVAAIEEFNEYFPGYAAMNDSNYSKLQHFFRSLHPIGCIKPFRFHYSSAFALENSLDDYLLKNAQFKRDGLAGEWAIHIFADHNDHIIEKYRMYKKKRLEKLERTFEERKKKAER	not soluble
MFKPELLSPAGTLKNMRYAFAYGADAVYAGQPRYSLRVRNNEFNHENLQLGINEAHALGKKFYVVVNIAPHNAKLKTFIRDLKPVVEMGPDALIMSDPGLIMLVREHFPEMPIHLSVQANAVNWATVKFWQQMGLTRVILSRELSLEEIEEIRNQVPDMEIEIFVHGALCMAYSGRCLLSGYINKRDPNQGTCTNACRWEYNVQEGKEDDVGNIVHKYEPIPVQNVEPTLGIGAPTDKVFMIEEAQRPGEYMTAFEDEHGTYIMNSKDLRAIAHVERLTKMGVHSLKIEGRTKSFYYCARTAQVYRKAIDDAAAGKPFDTSLLETLEGLAHRGYTEGFLRRHTHDDYQNYEYGYSVSDRQQFVGEFTGERKGDLAAVAVKNKFSVGDSLELMTPQGNINFTLEHMENAKGEAMPVAPGDGYTVWLPVPQDLELNYALLMRNFSGETTRNPHGK	not soluble
MFKVNEYFDGTVKSIAFSQAEGQATIGVMAAGEYEFGTAQREIMHVISGELNVKLPDSTDWETFSTGSQFNVPANSKFQLKVSVDTAYLCEYR	not soluble

Reference: the DeepSol protein solubility set
